Results from patent US7951595B2, “Methods for screening modulators of SLC17-type anion transport activity” (National University Corporation Okayama University, priority 2007, dated 2011).

T1: human SLC17A9 (Homo sapiens, UniProt Q9BYT1, N228S)
T1 construct: His6 (from pDEST10 vector); made in house; host or cells: insect cells, baculovirus system (Sf9 named for virus production)
T1 sequence (Q9BYT1 1-430 isoform Q9BYT1-2 N222S): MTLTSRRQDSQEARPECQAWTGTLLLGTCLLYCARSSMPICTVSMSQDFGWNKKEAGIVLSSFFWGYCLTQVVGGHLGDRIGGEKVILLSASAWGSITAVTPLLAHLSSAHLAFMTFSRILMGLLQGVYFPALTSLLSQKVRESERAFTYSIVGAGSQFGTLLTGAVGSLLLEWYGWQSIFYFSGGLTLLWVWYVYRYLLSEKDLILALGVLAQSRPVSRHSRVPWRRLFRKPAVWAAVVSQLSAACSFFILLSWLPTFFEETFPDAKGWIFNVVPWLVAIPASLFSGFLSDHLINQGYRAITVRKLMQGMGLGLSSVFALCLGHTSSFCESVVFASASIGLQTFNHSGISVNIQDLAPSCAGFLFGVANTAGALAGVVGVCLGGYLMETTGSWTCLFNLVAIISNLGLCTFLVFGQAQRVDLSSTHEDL

B1: Sialin: SLC17 family transporter protein, gene SLC17A5 (protein, UniProt Q9NRA2 1-495, looked up)
Sialin: MRSPVRDLARNDGEESTDRTPLLPGAPRAEAAPVCCSARYNLAILAFFGFFIVYALRVNLSVALVDMVDSNTTLEDNRTSKACPEHSAPIKVHHNQTGKKYQWDAETQGWILGSFFYGYIITQIPGGYVASKIGGKMLLGFGILGTAVLTLFTPIAADLGVGPLIVLRALEGLGEGVTFPAMHAMWSSWAPPLERSKLLSISYAGAQLGTVISLPLSGIICYYMNWTYVFYFFGTIGIFWFLLWIWLVSDTPQKHKRISHYEKEYILSSLRNQLSSQKSVPWVPILKSLPLWAIVVAHFSYNWTFYTLLTLLPTYMKEILRFNVQENGFLSSLPYLGSWLCMILSGQAADNLRAKWNFSTLCVRRIFSLIGMIGPAVFLVAAGFIGCDYSLAVAFLTISTTLGGFCSSGFSINHLDIAPSYAGILLGITNTFATIPGMVGPVIAKSLTPDNTVGEWQTVFYIAAAINVFGAIFFTLFAKGEVQNWALNDHHGHRH
B2: SLC17A9 protein: purified SLC17A9 membrane protein, vesicular nucleotide transporter (protein, UniProt Q9BYT1 1-436, looked up)
Voltage-gated purine …: MQPPPDEARRDMAGDTQWSRPECQAWTGTLLLGTCLLYCARSSMPICTVSMSQDFGWNKKEAGIVLSSFFWGYCLTQVVGGHLGDRIGGEKVILLSASAWGSITAVTPLLAHLSSAHLAFMTFSRILMGLLQGVYFPALTSLLSQKVRESERAFTYSIVGAGSQFGTLLTGAVGSLLLEWYGWQSIFYFSGGLTLLWVWYVYRYLLSEKDLILALGVLAQSRPVSRHNRVPWRRLFRKPAVWAAVVSQLSAACSFFILLSWLPTFFEETFPDAKGWIFNVVPWLVAIPASLFSGFLSDHLINQGYRAITVRKLMQGMGLGLSSVFALCLGHTSSFCESVVFASASIGLQTFNHSGISVNIQDLAPSCAGFLFGVANTAGALAGVVGVCLGGYLMETTGSWTCLFNLVAIISNLGLCTFLVFGQAQRVDLSSTHEDL
B3: VGLUT2: SLC17 family transporter protein, gene SLC17A6 (protein, UniProt Q9P2U8 1-582, looked up)
Vesicular glutamate …: MESVKQRILAPGKEGLKNFAGKSLGQIYRVLEKKQDTGETIELTEDGKPLEVPERKAPLCDCTCFGLPRRYIIAIMSGLGFCISFGIRCNLGVAIVDMVNNSTIHRGGKVIKEKAKFNWDPETVGMIHGSFFWGYIITQIPGGYIASRLAANRVFGAAILLTSTLNMLIPSAARVHYGCVIFVRILQGLVEGVTYPACHGIWSKWAPPLERSRLATTSFCGSYAGAVIAMPLAGILVQYTGWSSVFYVYGSFGMVWYMFWLLVSYESPAKHPTITDEERRYIEESIGESANLLGAMEKFKTPWRKFFTSMPVYAIIVANFCRSWTFYLLLISQPAYFEEVFGFEISKVGMLSAVPHLVMTIIVPIGGQIADFLRSKQILSTTTVRKIMNCGGFGMEATLLLVVGYSHTRGVAISFLVLAVGFSGFAISGFNVNHLDIAPRYASILMGISNGVGTLSGMVCPIIVGAMTKNKSREEWQYVFLIAALVHYGGVIFYAIFASGEKQPWADPEETSEEKCGFIHEDELDEETGDITQNYINYGTTKSYGATTQANGGWPSGWEKKEEFVQGEVQDSHSYKDRVDYS
B4: VGLUT3: SLC17 family transporter protein, gene SLC17A8 (protein, UniProt Q8NDX2 1-589, looked up)
Vesicular glutamate …: MPFKAFDTFKEKILKPGKEGVKNAVGDSLGILQRKIDGTTEEEDNIELNEEGRPVQTSRPSPPLCDCHCCGLPKRYIIAIMSGLGFCISFGIRCNLGVAIVEMVNNSTVYVDGKPEIQTAQFNWDPETVGLIHGSFFWGYIMTQIPGGFISNKFAANRVFGAAIFLTSTLNMFIPSAARVHYGCVMCVRILQGLVEGVTYPACHGMWSKWAPPLERSRLATTSFCGSYAGAVVAMPLAGVLVQYIGWSSVFYIYGMFGIIWYMFWLLQAYECPAAHPTISNEEKTYIETSIGEGANVVSLSKFSTPWKRFFTSLPVYAIIVANFCRSWTFYLLLISQPAYFEEVFGFAISKVGLLSAVPHMVMTIVVPIGGQLADYLRSRQILTTTAVRKIMNCGGFGMEATLLLVVGFSHTKGVAISFLVLAVGFSGFAISGFNVNHLDIAPRYASILMGISNGVGTLSGMVCPLIVGAMTRHKTREEWQNVFLIAALVHYSGVIFYGVFASGEKQEWADPENLSEEKCGIIDQDELAEEIELNHESFASPKKKMSYGATSQNCEVQKKEWKGQRGATLDEEELTSYQNEERNFSTIS
B5: NPT1: SLC17 family transporter protein, gene SLC17A1 (protein, UniProt Q14916 1-467, looked up)
Sodium-dependent phosphate …: MQMDNRLPPKKVPGFCSFRYGLSFLVHCCNVIITAQRACLNLTMVVMVNSTDPHGLPNTSTKKLLDNIKNPMYNWSPDIQGIILSSTSYGVIIIQVPVGYFSGIYSTKKMIGFALCLSSVLSLLIPPAAGIGVAWVVVCRAVQGAAQGIVATAQFEIYVKWAPPLERGRLTSMSTSGFLLGPFIVLLVTGVICESLGWPMVFYIFGACGCAVCLLWFVLFYDDPKDHPCISISEKEYITSSLVQQVSSSRQSLPIKAILKSLPVWAISTGSFTFFWSHNIMTLYTPMFINSMLHVNIKENGFLSSLPYLFAWICGNLAGQLSDFFLTRNILSVIAVRKLFTAAGFLLPAIFGVCLPYLSSTFYSIVIFLILAGATGSFCLGGVFINGLDIAPRYFGFIKACSTLTGMIGGLIASTLTGLILKQDPESAWFKTFILMAAINVTGLIFYLIVATAEIQDWAKEKQHTRL
B6: VGLUT1: SLC17 family transporter protein, gene SLC17A7 (protein, UniProt Q9P2U7 1-560, looked up)
Vesicular glutamate …: MEFRQEEFRKLAGRALGKLHRLLEKRQEGAETLELSADGRPVTTQTRDPPVVDCTCFGLPRRYIIAIMSGLGFCISFGIRCNLGVAIVSMVNNSTTHRGGHVVVQKAQFSWDPETVGLIHGSFFWGYIVTQIPGGFICQKFAANRVFGFAIVATSTLNMLIPSAARVHYGCVIFVRILQGLVEGVTYPACHGIWSKWAPPLERSRLATTAFCGSYAGAVVAMPLAGVLVQYSGWSSVFYVYGSFGIFWYLFWLLVSYESPALHPSISEEERKYIEDAIGESAKLMNPLTKFSTPWRRFFTSMPVYAIIVANFCRSWTFYLLLISQPAYFEEVFGFEISKVGLVSALPHLVMTIIVPIGGQIADFLRSRRIMSTTNVRKLMNCGGFGMEATLLLVVGYSHSKGVAISFLVLAVGFSGFAISGFNVNHLDIAPRYASILMGISNGVGTLSGMVCPIIVGAMTKHKTREEWQYVFLIASLVHYGGVIFYGVFASGEKQPWAEPEEMSEEKCGFVGHDQLAGSDDSEMEDEAEPPGAPPAPPPSYGATHSTFQPPRPPPPVRDY

Assays:
human SLC17A9 = molecular target: T1, human SLC17A9; assay: Nucleotide transport by human SLC17A9 reconstituted proteoliposomes (valinomycin-induced membrane potential, radiolabelled substrate); type: biochemical
Description: (§1) 10 μg of purified SLC17A9 and 0.5 mg of soybean-derived lipids were mixed and incubated at −80° C. for 5 minutes or more. The mixture was thawed quickly by holding the tube in the hands, and was diluted 60-fold with a buffer solution containing 20 mM MOPS-Tris (pH 7.0), 0.15M sodium acetate, 2 mM magnesium acetate and 0.5 mM DTT. This dilution was centrifuged at 200,000×g at 4° C. for one hour, the supernatant was discarded, and the precipitate was resuspended in a buffer solution containing 20 mM MOPS-Tris (pH 7.0), 0.15M sodium acetate, 2 mM magnesium acetate and 0.5 mM DTT, to obtain SLC17A9 reconstituted proteoliposomes. As a control, liposomes without SLC17A9 were used.
The nucleotide transport activity was measured by the following procedure. The reconstituted proteoliposomes were incubated in a buffer solution containing 20 mM MOPS-Tris (pH 7.0), 0.15M potassium acetate, 2 mM magnesium acetate and 4 mM potassium chloride, at 27° C. for 2 minutes, and valinomycin was added thereto to a final concentration of 2 μM. The mixture was incubated for further 2 minutes. The point of addition of 0.1 mM [α-^32P]ATP (3.7 GBq/mmol) was defined as the initiation of activity measurement. At a predetermined time point, 130 μL of the reaction liquid was recovered and centrifuged through a Sephadex G-50 (fine) spin column at 760×g for 2 minutes. The uptake of ATP was measured by measuring the radioactivity included in the reaction liquid that had passed through the column using a liquid scintillation counter. In the measurement of the transport activity for ADP and GTP, [2,8-^3H]ADP (0.37 GBq/mmol) and [α-^32P]GTP (3.7 GBq/mmol) were used instead of ATP as the substrate.
In an experiment for an inhibitor, a predetermined concentration of an inhibitor was added upon incubation of the proteoliposomes.

[1] = tested on: SLC17 family transporter proteins; assay: ATP uptake by other SLC17 family proteins reconstituted like SLC17A9; type: biochemical; settings: 0.1 mM [α-32P]ATP, uptake after 2 minutes, relative to SLC17A9 protein
Description: as §1
The nucleotide transport activity was measured by the following procedure. The reconstituted proteoliposomes were incubated in a buffer solution containing 20 mM MOPS-Tris (pH 7.0), 0.15M potassium acetate, 2 mM magnesium acetate and 4 mM potassium chloride, at 27° C. for 2 minutes, and valinomycin was added thereto to a final concentration of 2 μM. The mixture was incubated for further 2 minutes. […] At a predetermined time point, 130 μL of the reaction liquid was recovered and centrifuged through a Sephadex G-50 (fine) spin column at 760×g for 2 minutes.
Each of the transporter proteins that belong to the SLC17 family was purified in the same manner as in the case of SLC17A9, and was reconstituted according to the technique of Example 11.

Row | Molecule | ATP Transport (%) [1] [%] | also measured
1 | CC(C)[C@@H]1NC(=O)[C@H](C)OC(=O)[C@@H](C(C)C)NC(=O)[C@@H](C(C)C)OC(=O)[C@H](C(C)C)NC(=O)[C@H](C)OC(=O)[C@@H](C(C)C)NC(=O)[C@@H](C(C)C)OC(=O)[C@H](C(C)C)NC(=O)[C@H](C)OC(=O)[C@@H](C(C)C)NC(=O)[C@@H](C(C)C)OC1=O [valinomycin] |  | effect on uptake of radioactive ATP (human SLC17A9; ATP 100 μM, valinomycin 2 μM, FIG. 13(B)): activated
2 | C=C1[C@@H]2CC[C@H]3[C@]4(C)C[C@H](O[C@@H]5O[C@H](CO)[C@@H](OS(=O)(=O)O)[C@H](OS(=O)(=O)O)[C@H]5OC(=O)CC(C)C)C[C@@H](C(=O)O)[C@H]4CC[C@]3(C2)[C@H]1O [atractyloside] |  | effect of addition on the ATP uptake (human SLC17A9; atractyloside 200 μM, with or without Mg2+, FIG. 17(C)): Only when Mg^2+ was present, the ATP uptake was inhibited
3 | Cl [chloride ions] |  | chloride ion concentration at which ATP uptake activity reached a steady state (human SLC17A9; chloride ions at various concentrations, FIG. 14): 4 mM
4 | Cc1cc(-c2ccc(/N=N/c3ccc4c(S(=O)(=O)O)cc(S(=O)(=O)O)c(N)c4c3O)c(C)c2)ccc1/N=N/c1ccc2c(S(=O)(=O)O)cc(S(=O)(=O)O)c(N)c2c1O [Evans Blue] |  | IC50 (human SLC17A9; SLC17A9 reconstituted proteoliposomes, FIG. 17B): 40 nM
5 | B1 | 2.1 ± 0.8 | 
6 | B2 | 100.0 | 
7 | B3 | 0.1 ± 0.2 | 
8 | B4 | 7.1 ± 2.1 | 
9 | B5 | 2.0 ± 1.1 | 
10 | B6 | 1.7 ± 0.7 | 
